Test results as given in article PMC4001774.

Molecular target: CaM-GST on Sepharose beads (UniProt P0DP23)
Test: pull-down

Chain of human Ano1(ac) (natural protein) (Q5XXA6 whole entry): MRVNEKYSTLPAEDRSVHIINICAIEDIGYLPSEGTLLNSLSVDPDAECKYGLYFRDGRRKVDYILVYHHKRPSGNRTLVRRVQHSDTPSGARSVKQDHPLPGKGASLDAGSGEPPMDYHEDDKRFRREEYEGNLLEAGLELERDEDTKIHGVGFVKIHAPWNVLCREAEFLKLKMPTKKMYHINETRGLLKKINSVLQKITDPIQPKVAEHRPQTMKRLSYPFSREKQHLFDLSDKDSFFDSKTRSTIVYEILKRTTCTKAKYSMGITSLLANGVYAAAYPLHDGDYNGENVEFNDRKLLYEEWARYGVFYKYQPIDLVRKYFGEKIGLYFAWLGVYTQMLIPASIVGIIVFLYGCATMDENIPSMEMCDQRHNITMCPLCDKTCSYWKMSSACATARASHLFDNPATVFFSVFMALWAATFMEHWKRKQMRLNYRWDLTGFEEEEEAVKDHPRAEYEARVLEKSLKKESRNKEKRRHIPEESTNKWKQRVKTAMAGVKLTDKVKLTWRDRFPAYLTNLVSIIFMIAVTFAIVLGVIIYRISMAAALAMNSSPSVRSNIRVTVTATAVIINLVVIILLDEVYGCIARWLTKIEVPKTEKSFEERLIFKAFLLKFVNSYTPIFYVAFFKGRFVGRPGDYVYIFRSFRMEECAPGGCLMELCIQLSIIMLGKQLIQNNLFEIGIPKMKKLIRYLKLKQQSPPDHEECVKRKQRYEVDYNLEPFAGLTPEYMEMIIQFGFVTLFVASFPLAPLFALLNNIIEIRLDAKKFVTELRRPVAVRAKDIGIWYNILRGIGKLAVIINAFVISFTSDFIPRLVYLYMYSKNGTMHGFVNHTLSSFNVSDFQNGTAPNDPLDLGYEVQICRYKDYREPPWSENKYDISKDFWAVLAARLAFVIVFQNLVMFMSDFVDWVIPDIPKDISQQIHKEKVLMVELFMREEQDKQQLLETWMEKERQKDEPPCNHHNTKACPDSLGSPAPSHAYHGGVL
Chain of CaMKIIα-Venus (P11275 whole entry): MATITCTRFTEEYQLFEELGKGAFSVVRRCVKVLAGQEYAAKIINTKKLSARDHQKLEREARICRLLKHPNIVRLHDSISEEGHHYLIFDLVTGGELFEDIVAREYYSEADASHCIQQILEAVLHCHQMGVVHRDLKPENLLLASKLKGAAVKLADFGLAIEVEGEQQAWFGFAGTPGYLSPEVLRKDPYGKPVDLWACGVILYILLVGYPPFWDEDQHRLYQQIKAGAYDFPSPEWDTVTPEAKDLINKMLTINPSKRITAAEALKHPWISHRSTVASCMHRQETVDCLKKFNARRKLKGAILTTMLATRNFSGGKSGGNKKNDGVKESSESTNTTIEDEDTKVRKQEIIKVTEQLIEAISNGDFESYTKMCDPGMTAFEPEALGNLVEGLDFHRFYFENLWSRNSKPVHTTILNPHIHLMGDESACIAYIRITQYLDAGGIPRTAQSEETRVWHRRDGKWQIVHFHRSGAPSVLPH
Chain of mAno1-FLAG(3X) (Q8BHY3 whole entry): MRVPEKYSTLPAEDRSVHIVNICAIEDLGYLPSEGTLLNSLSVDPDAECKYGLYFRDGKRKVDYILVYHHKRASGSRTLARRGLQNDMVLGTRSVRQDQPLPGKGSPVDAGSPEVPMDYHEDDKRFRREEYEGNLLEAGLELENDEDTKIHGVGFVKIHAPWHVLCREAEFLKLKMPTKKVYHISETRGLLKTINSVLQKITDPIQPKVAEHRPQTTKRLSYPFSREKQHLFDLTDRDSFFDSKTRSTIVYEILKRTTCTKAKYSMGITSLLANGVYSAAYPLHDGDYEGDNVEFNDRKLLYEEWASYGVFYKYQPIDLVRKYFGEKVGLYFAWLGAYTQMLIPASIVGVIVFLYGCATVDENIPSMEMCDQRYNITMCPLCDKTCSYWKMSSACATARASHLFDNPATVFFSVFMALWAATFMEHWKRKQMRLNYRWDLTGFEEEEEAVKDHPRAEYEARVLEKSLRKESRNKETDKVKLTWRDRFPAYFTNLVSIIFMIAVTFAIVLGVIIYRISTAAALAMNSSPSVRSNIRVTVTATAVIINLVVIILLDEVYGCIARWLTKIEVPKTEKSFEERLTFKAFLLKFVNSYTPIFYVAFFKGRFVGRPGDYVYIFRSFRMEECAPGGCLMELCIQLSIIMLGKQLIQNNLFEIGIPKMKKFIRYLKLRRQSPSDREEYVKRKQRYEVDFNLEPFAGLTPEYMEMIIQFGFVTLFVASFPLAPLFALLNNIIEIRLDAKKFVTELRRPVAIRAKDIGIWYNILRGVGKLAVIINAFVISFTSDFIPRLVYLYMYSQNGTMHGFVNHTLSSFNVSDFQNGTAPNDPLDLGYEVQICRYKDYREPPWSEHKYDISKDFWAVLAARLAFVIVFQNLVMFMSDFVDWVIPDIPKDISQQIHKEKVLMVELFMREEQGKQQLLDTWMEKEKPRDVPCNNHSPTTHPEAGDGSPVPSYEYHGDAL

fold bound with Ca2+ over without Ca2+ [fold]	percent of the protein in the lysate that bound [%]	Substance
10	100	CaMKIIα-Venus (from UniProt P11275 1-478) (enzyme)
2	< 1	human Ano1(ac) (natural protein)
	< 1	mAno1-FLAG(3X) (from UniProt Q8BHY3 1-960) (natural protein)
